± gives the uncertainty stated by the source.
Test: self-splicing fitness, log relative to wild type (ln ratio); higher = more splicing; Tetrahymena group I intron in knt gene, E. coli kanamycin selection, DiMSum; sequences stand for … in CUCUCU…GGAGGGAAAAGUUAUCAGGCAUGCACCUGGUAGCUAGUCUUUAAACCAAUAGAUUGCAUCGGUUUAAAAGGCAAGACCGUCAAAUUGCGGGAAAGGGGUCAACAGCCGUUCAGUACCAAGUCUCAGGGGAAACUUUGAGAUGGCCUUGCAAAGGGUAUGGUAAUAAGCUGACGGACAUGGUCCUAACCACGCAGCCAAGUCCUAAGUCAACAGAUCUUCUGUUGAUAUGGAUGCAGUUCACAGACUAAAUGUCGGUCGGGGAAGAUGUAUUCUUCUCAUAAGAUAUAGUCGGACCUCUCCUUAAUGGGAGCUAGCGGAUGAAGUGAUGCAACACUGGAGCCGCUGGGAACUAAUUUGUAUGCGAAAGUAUAUUGAUUAGUUUUGGAGUACUCGUGGUCG
Method in brief: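 Library with all eight P1ex-region intron nucleotides randomised, intron inside the knt kanamycin-resistance gene on pET-22b(+), in E. coli BL21(DE3). Cells grew overnight at 37°C or 30°C on LB agar with or without 25 μg/mL kanamycin (plus 100 μg/mL carbenicillin, 50 μM IPTG, 0.2% rhamnose), in six replicate transformations. Pooled colonies were amplicon-sequenced on Illumina HiSeq 2500. DiMSum fitness is the error-weighted combination of wild-type-normalised replicate fold changes, kanamycin versus none.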

| Sequence | self-splicing fitness (ln) (30 °C) | self-splicing fitness (ln) (37 °C) |
| --- | --- | --- |
| UGCAAGCAAUAUUACGUAUC | -3.22 ± 0.2 | -1.14 ± 0.15 |
| UGCAAGCAAUAUUACGUCGU | -3.58 ± 0.22 | -1.81 ± 0.17 |
| UGCAAGCAAUAUUACGUUAA | -2.27 ± 0.13 | -0.494 ± 0.1 |
| UGCAAGCAAUAUUACGUUUA | -1.49 ± 0.076 | -0.234 ± 0.072 |
| UGCCAGCAAUAUUACGAAGC | -3.74 ± 0.22 | -1.91 ± 0.18 |
| UGCCAGCAAUAUUACGAAGU | -2.88 ± 0.22 | -2.97 ± 0.23 |
| UGCCAGCAAUAUUACGAAUU | -3.68 ± 0.26 | -3.3 ± 0.24 |
| UGCCAGCAAUAUUACGACUA | -0.442 ± 0.1 | -0.0497 ± 0.1 |
| UGCCAGCAAUAUUACGCACU | -2.03 ± 0.069 | -0.315 ± 0.066 |
| UGCCAGCAAUAUUACGCCCG | -0.317 ± 0.12 | 0.404 ± 0.14 |
| UGCCAGCAAUAUUACGCCUA | -0.546 ± 0.074 | 0.0605 ± 0.087 |
| UGCCAGCAAUAUUACGCGAC | -2.62 ± 0.3 | -0.608 ± 0.23 |
| UGCCAGCAAUAUUACGCGAU | -2.42 ± 0.17 | -1.88 ± 0.23 |
| UGCCAGCAAUAUUACGCGUU | -1.67 ± 0.069 | -0.989 ± 0.082 |
| UGCCAGCAAUAUUACGGAAG | -2.55 ± 0.073 | -1.42 ± 0.071 |
| UGCCAGCAAUAUUACGGAGU | -4.74 ± 0.27 | -1.34 ± 0.13 |
| UGCCAGCAAUAUUACGGAUC | -3.04 ± 0.22 | -1.13 ± 0.17 |
| UGCCAGCAAUAUUACGGCUU | -0.887 ± 0.098 | -0.247 ± 0.11 |
| UGCCAGCAAUAUUACGGGCC | -3.23 ± 0.21 | -1.73 ± 0.2 |
| UGCCAGCAAUAUUACGGUUC | -3.35 ± 0.2 | -1.81 ± 0.14 |
| UGCCAGCAAUAUUACGGUUU | -0.471 ± 0.075 | -0.237 ± 0.096 |
| UGCCAGCAAUAUUACGUAGG | -3.34 ± 0.25 | -0.145 ± 0.17 |
| UGCCAGCAAUAUUACGUCCC | -2.89 ± 0.31 | -1.71 ± 0.43 |
| UGCCAGCAAUAUUACGUCUG | -2.57 ± 0.15 | -1.48 ± 0.16 |
| UGCCAGCAAUAUUACGUGAC | -3.43 ± 0.16 | -3.2 ± 0.22 |

| Sequence | self-splicing fitness (ln) (30 °C) | self-splicing fitness (ln) (37 °C) |
| --- | --- | --- |
| UGCCAGCAAUAUUACGUGUC | -3.01 ± 0.19 | -1.04 ± 0.13 |
| UGCCAGCAAUAUUACGUUAU | -3.98 ± 0.2 | -0.982 ± 0.12 |
| UGCCAGCAAUAUUACGUUCA | -0.171 ± 0.059 | -0.0317 ± 0.089 |
| UGCCAGCAAUAUUACGUUCG | -0.361 ± 0.07 | 0.136 ± 0.089 |
| UGCCAGCAAUAUUACGUUGG | -3.91 ± 0.18 | -2.22 ± 0.15 |
| UGCGAGCAAUAUUACGAAAA | -1.24 ± 0.27 | – |
| UGCGAGCAAUAUUACGAAUG | -2.77 ± 0.18 | -2.43 ± 0.23 |
| UGCGAGCAAUAUUACGACAU | -3.628 ± 0.028 | -2.26 ± 0.039 |
| UGCGAGCAAUAUUACGACCU | -0.697 ± 0.18 | -0.146 ± 0.2 |
| UGCGAGCAAUAUUACGACGA | -1.13 ± 0.13 | -0.458 ± 0.13 |
| UGCGAGCAAUAUUACGAGGU | -1.68 ± 0.19 | -2.24 ± 0.28 |
| UGCGAGCAAUAUUACGCAAG | -2.27 ± 0.27 | – |
| UGCGAGCAAUAUUACGCCAU | – | -2.45 ± 0.49 |
| UGCGAGCAAUAUUACGCCCU | -0.783 ± 0.39 | – |
| UGCGAGCAAUAUUACGCUUA | -1.98 ± 0.16 | -1.46 ± 0.22 |
| UGCGAGCAAUAUUACGGCCU | -1.85 ± 0.2 | -1.45 ± 0.24 |
| UGCGAGCAAUAUUACGGCGA | -0.753 ± 0.099 | -0.754 ± 0.11 |
| UGCGAGCAAUAUUACGGCUU | -1.76 ± 0.2 | -2.61 ± 0.33 |
| UGCGAGCAAUAUUACGGGGA | -2.81 ± 0.39 | -1.9 ± 0.29 |
| UGCGAGCAAUAUUACGGGGG | -3.34 ± 0.26 | -2.36 ± 0.29 |
| UGCGAGCAAUAUUACGGGUC | -4.21 ± 0.27 | -2.72 ± 0.3 |
| UGCGAGCAAUAUUACGGUUA | -0.797 ± 0.11 | -0.443 ± 0.12 |
| UGCGAGCAAUAUUACGUAAC | -3.17 ± 0.18 | -3.09 ± 0.27 |
| UGCGAGCAAUAUUACGUCAG | -2.69 ± 0.27 | -2.11 ± 0.43 |
| UGCGAGCAAUAUUACGUGAC | -3.73 ± 0.36 | -2.31 ± 0.26 |

| Sequence | self-splicing fitness (ln) (30 °C) | self-splicing fitness (ln) (37 °C) |
| --- | --- | --- |
| UGCGAGCAAUAUUACGUGUU | -3.58 ± 0.43 | -2.47 ± 0.32 |
| UGCGAGCAAUAUUACGUUGU | -2.79 ± 0.18 | -3.05 ± 0.27 |
| UGCUAGCAAUAUUACGAAUC | -3.2 ± 0.15 | -3.95 ± 0.29 |
| UGCUAGCAAUAUUACGACGU | -1.71 ± 0.22 | -2.36 ± 0.32 |
| UGCUAGCAAUAUUACGAGGG | -2.22 ± 0.15 | -2.43 ± 0.19 |
| UGCUAGCAAUAUUACGCGCC | -1.26 ± 0.2 | -0.477 ± 0.29 |
| UGCUAGCAAUAUUACGCGGG | -3.41 ± 0.28 | -2.38 ± 0.31 |
| UGCUAGCAAUAUUACGGACU | -0.341 ± 0.1 | -0.639 ± 0.088 |
| UGCUAGCAAUAUUACGGCAG | -2.52 ± 0.12 | -1.1 ± 0.13 |
| UGCUAGCAAUAUUACGGUCG | 0.0903 ± 0.098 | 0.362 ± 0.14 |
| UGCUAGCAAUAUUACGUACC | – | 0.784 ± 0.4 |
| UGCUAGCAAUAUUACGUAGA | -2.3 ± 0.18 | -0.929 ± 0.17 |
| UGCUAGCAAUAUUACGUAUA | -2.81 ± 0.24 | -1.1 ± 0.16 |
| UGCUAGCAAUAUUACGUGCU | -2.31 ± 0.16 | -2 ± 0.17 |
| UGCUAGCAAUAUUACGUGGG | -3.58 ± 0.27 | -3.28 ± 0.35 |
| UGCUAGCAAUAUUACGUUAA | -2.54 ± 0.14 | -0.941 ± 0.11 |
| UGCUAGCAAUAUUACGUUGG | -3.3 ± 0.19 | -2.49 ± 0.2 |
| UGGAAGCAAUAUUACGAACG | -0.465 ± 0.24 | -0.592 ± 0.32 |
| UGGAAGCAAUAUUACGACAA | -1.46 ± 0.14 | -1.88 ± 0.17 |
| UGGAAGCAAUAUUACGACCU | 0.308 ± 0.11 | 0.699 ± 0.12 |
| UGGAAGCAAUAUUACGAGGA | -2.94 ± 0.4 | -2.82 ± 0.4 |
| UGGAAGCAAUAUUACGAGGG | – | -1.89 ± 0.34 |
| UGGAAGCAAUAUUACGCAAA | -1.24 ± 0.16 | -0.937 ± 0.16 |
| UGGAAGCAAUAUUACGCACU | -0.488 ± 0.12 | -0.124 ± 0.15 |
| UGGAAGCAAUAUUACGCAUU | -2.63 ± 0.27 | – |

| Sequence | self-splicing fitness (ln) (30 °C) | self-splicing fitness (ln) (37 °C) |
| --- | --- | --- |
| UGGAAGCAAUAUUACGCCCA | – | -0.992 ± 0.45 |
| UGGAAGCAAUAUUACGCCCG | -0.383 ± 0.22 | 0.191 ± 0.27 |
| UGGAAGCAAUAUUACGCGUC | -0.409 ± 0.2 | -1.89 ± 0.27 |
| UGGAAGCAAUAUUACGGACG | -1.13 ± 0.16 | 0.0618 ± 0.28 |
| UGGAAGCAAUAUUACGGAGU | -3.51 ± 0.22 | -2.75 ± 0.22 |
| UGGAAGCAAUAUUACGGCAC | – | -1.36 ± 0.37 |
| UGGAAGCAAUAUUACGGCCC | -0.223 ± 0.15 | 0.256 ± 0.18 |
| UGGAAGCAAUAUUACGGCUG | -0.475 ± 0.099 | 1.02 ± 0.12 |
| UGGAAGCAAUAUUACGGGUG | -1.07 ± 0.063 | -0.839 ± 0.083 |
| UGGAAGCAAUAUUACGGUAA | -1.48 ± 0.18 | -0.845 ± 0.14 |
| UGGAAGCAAUAUUACGGUAC | -4.18 ± 0.39 | -1.5 ± 0.25 |
| UGGAAGCAAUAUUACGGUAU | -3.09 ± 0.38 | – |
| UGGAAGCAAUAUUACGGUCA | -0.00492 ± 0.13 | 0.828 ± 0.15 |
| UGGAAGCAAUAUUACGGUGC | -2.93 ± 0.3 | -2.86 ± 0.43 |
| UGGAAGCAAUAUUACGUACC | -1.73 ± 0.19 | -0.601 ± 0.23 |
| UGGAAGCAAUAUUACGUAGG | -1.13 ± 0.067 | -1.05 ± 0.092 |
| UGGAAGCAAUAUUACGUAGU | -2.9 ± 0.27 | -1.41 ± 0.2 |
| UGGAAGCAAUAUUACGUAUG | -1.96 ± 0.16 | -0.289 ± 0.14 |
| UGGAAGCAAUAUUACGUGCA | -0.0243 ± 0.057 | -0.187 ± 0.067 |
| UGGCAGCAAUAUUACGAAGC | – | -1.72 ± 0.45 |
| UGGCAGCAAUAUUACGAAGG | -2.93 ± 0.18 | -1.21 ± 0.23 |
| UGGCAGCAAUAUUACGACGG | -0.817 ± 0.15 | 0.837 ± 0.17 |
| UGGCAGCAAUAUUACGACUA | 0.138 ± 0.07 | 0.38 ± 0.1 |

Source: the supplement of paper PMC7877785
